# In the Human Domainome abundance scans (Beltran et al. 2025):
# ± gives the uncertainty stated by the source.
# B1: Zinc finger MYM-type protein 2, residues 463 to 506; numbered along this chain, Q9UBW7 (parent)
# chain: IMNCCEQCGEYLPSKGAGNNVLVIDGQQKRFCCQSCVSEYKQVG
# Variants of: B1
# Assay: abundance fitness (aPCA) (normalised: wild type 0, dead -1); higher = more abundant; growth selection in yeast, the domain comes from the species named
# Conditions: Homo sapiens
row,Variant,abundance fitness
1,IMNCCEQCGEYLPSKPAGNNVLVIDGQQKRFCCQSCVSEYKQVG,-0.175 ± 0.14
2,IMNCCEQCGEYLPSKTAGNNVLVIDGQQKRFCCQSCVSEYKQVG,0.202 ± 0.18
3,IMNCCEQCGEYLPSKEAGNNVLVIDGQQKRFCCQSCVSEYKQVG,0.136 ± 0.11
4,IMNCCEQCGEYLPSKAAGNNVLVIDGQQKRFCCQSCVSEYKQVG,-0.06 ± 0.1
5,IMNCCEQCGEYLPSKRAGNNVLVIDGQQKRFCCQSCVSEYKQVG,-0.562 ± 0.078
6,IMNCCEQCGEYLPSKMAGNNVLVIDGQQKRFCCQSCVSEYKQVG,0.007 ± 0.29
7,IMNCCEQCGEYLPSKLAGNNVLVIDGQQKRFCCQSCVSEYKQVG,-0.214 ± 0.08
8,IMNCCEQCGEYLPSKHAGNNVLVIDGQQKRFCCQSCVSEYKQVG,-0.249 ± 0.099
9,IMNCCEQCGEYLPSKQAGNNVLVIDGQQKRFCCQSCVSEYKQVG,0.07 ± 0.1
10,IMNCCEQCGEYLPSKVAGNNVLVIDGQQKRFCCQSCVSEYKQVG,-0.272 ± 0.14
11,IMNCCEQCGEYLPSKWAGNNVLVIDGQQKRFCCQSCVSEYKQVG,-0.319 ± 0.093
12,IMNCCEQCGEYLPSKCAGNNVLVIDGQQKRFCCQSCVSEYKQVG,-0.113 ± 0.085
13,IMNCCEQCGEYLPSKSAGNNVLVIDGQQKRFCCQSCVSEYKQVG,-0.047 ± 0.12
14,IMNCCEQCGEYLPRKGAGNNVLVIDGQQKRFCCQSCVSEYKQVG,-0.456 ± 0.089
15,IMNCCEQCGEYLPGKGAGNNVLVIDGQQKRFCCQSCVSEYKQVG,-0.098 ± 0.079
16,IMNCCEQCGEYLPTKGAGNNVLVIDGQQKRFCCQSCVSEYKQVG,-0.09 ± 0.12
17,IMNCCEQCGEYLPWKGAGNNVLVIDGQQKRFCCQSCVSEYKQVG,-0.454 ± 0.092
18,IMNCCEQCGEYLPLKGAGNNVLVIDGQQKRFCCQSCVSEYKQVG,-0.107 ± 0.076
19,IMNCCEQCGEYLPCKGAGNNVLVIDGQQKRFCCQSCVSEYKQVG,-0.072 ± 0.16
20,IMNCCEQCGEYLPFKGAGNNVLVIDGQQKRFCCQSCVSEYKQVG,-0.548 ± 0.18
21,IMNCCEQCGEYLPEKGAGNNVLVIDGQQKRFCCQSCVSEYKQVG,0.13 ± 0.19
22,IMNCCEQCGEYLPMKGAGNNVLVIDGQQKRFCCQSCVSEYKQVG,-0.361 ± 0.12
23,IMNCCEQCGEYLPYKGAGNNVLVIDGQQKRFCCQSCVSEYKQVG,-0.802 ± 0.33
24,IMNCCEQCGEYLPDKGAGNNVLVIDGQQKRFCCQSCVSEYKQVG,0.241 ± 0.13

row,Variant,abundance fitness
1,IMNCCEQCGEYLPKKGAGNNVLVIDGQQKRFCCQSCVSEYKQVG,-0.283 ± 0.16
2,IMNCCEQCGEYLPQKGAGNNVLVIDGQQKRFCCQSCVSEYKQVG,-0.123 ± 0.12
3,IMNCCEQCGEYLPPKGAGNNVLVIDGQQKRFCCQSCVSEYKQVG,0.33 ± 0.22
4,IMNCCEQCGEYLPSKGQGNNVLVIDGQQKRFCCQSCVSEYKQVG,-0.069 ± 0.1
5,IMNCCEQCGEYLPSKGCGNNVLVIDGQQKRFCCQSCVSEYKQVG,-0.11 ± 0.13
6,IMNCCEQCGEYLPSKGDGNNVLVIDGQQKRFCCQSCVSEYKQVG,0.012 ± 0.15
7,IMNCCEQCGEYLPSKGKGNNVLVIDGQQKRFCCQSCVSEYKQVG,-0.521 ± 0.16
8,IMNCCEQCGEYLPSKGGGNNVLVIDGQQKRFCCQSCVSEYKQVG,-0.095 ± 0.095
9,IMNCCEQCGEYLPSKGEGNNVLVIDGQQKRFCCQSCVSEYKQVG,0.116 ± 0.096
10,IMNCCEQCGEYLPSKGVGNNVLVIDGQQKRFCCQSCVSEYKQVG,-0.223 ± 0.11
11,IMNCCEQCGEYLPSKGRGNNVLVIDGQQKRFCCQSCVSEYKQVG,-0.628 ± 0.11
12,IMNCCEQCGEYLPSKGLGNNVLVIDGQQKRFCCQSCVSEYKQVG,-0.188 ± 0.091
13,IMNCCEQCGEYLPSKGPGNNVLVIDGQQKRFCCQSCVSEYKQVG,-0.274 ± 0.11
14,IMNCCEQCGEYLPSKGHGNNVLVIDGQQKRFCCQSCVSEYKQVG,-0.337 ± 0.15
15,IMNCCEQCGEYLPSKGTGNNVLVIDGQQKRFCCQSCVSEYKQVG,-0.309 ± 0.33
16,IMNCCEQCGEYLPSKGAGNLVLVIDGQQKRFCCQSCVSEYKQVG,-0.103 ± 0.1
17,IMNCCEQCGEYLPSKGAGNGVLVIDGQQKRFCCQSCVSEYKQVG,-0.119 ± 0.082
18,IMNCCEQCGEYLPSKGAGNVVLVIDGQQKRFCCQSCVSEYKQVG,-0.019 ± 0.083
19,IMNCCEQCGEYLPSKGAGNCVLVIDGQQKRFCCQSCVSEYKQVG,0 ± 0.11
20,IMNCCEQCGEYLPSKGAGNYVLVIDGQQKRFCCQSCVSEYKQVG,-0.065 ± 0.12
21,IMNCCEQCGEYLPSKGAGNRVLVIDGQQKRFCCQSCVSEYKQVG,-0.285 ± 0.086
22,IMNCCEQCGEYLPSKGAGNWVLVIDGQQKRFCCQSCVSEYKQVG,-0.191 ± 0.079
23,IMNCCEQCGEYLPSKGAGNAVLVIDGQQKRFCCQSCVSEYKQVG,-0.037 ± 0.11
24,IMNCCEQCGEYLPSKGAGNMVLVIDGQQKRFCCQSCVSEYKQVG,-0.038 ± 0.1

row,Variant,abundance fitness
1,IMNCCEQCGEYLPSKGAGNDVLVIDGQQKRFCCQSCVSEYKQVG,-0.248 ± 0.48
2,IMNCCEQCGEYLPSKGAGNKVLVIDGQQKRFCCQSCVSEYKQVG,-0.209 ± 0.13
3,IMNCCEQCGEYLPSKGAGNHVLVIDGQQKRFCCQSCVSEYKQVG,0.087 ± 0.16
4,IMNCCEQCGEYLPSKGAGQNVLVIDGQQKRFCCQSCVSEYKQVG,-0.107 ± 0.12
5,IMNCCEQCGEYLPSKGAGSNVLVIDGQQKRFCCQSCVSEYKQVG,0.001 ± 0.12
6,IMNCCEQCGEYLPSKGAGFNVLVIDGQQKRFCCQSCVSEYKQVG,-0.023 ± 0.096
7,IMNCCEQCGEYLPSKGAGCNVLVIDGQQKRFCCQSCVSEYKQVG,-0.069 ± 0.12
8,IMNCCEQCGEYLPSKGAGINVLVIDGQQKRFCCQSCVSEYKQVG,-0.141 ± 0.13
9,IMNCCEQCGEYLPSKGAGMNVLVIDGQQKRFCCQSCVSEYKQVG,-0.061 ± 0.19
10,IMNCCEQCGEYLPSKGAGHNVLVIDGQQKRFCCQSCVSEYKQVG,-0.157 ± 0.11
11,IMNCCEQCGEYLPSKGAGLNVLVIDGQQKRFCCQSCVSEYKQVG,-0.051 ± 0.1
12,IMNCCEQCGEYLPSKGAGGNVLVIDGQQKRFCCQSCVSEYKQVG,0.006 ± 0.08
13,IMNCCEQCGEYLPSKGAGENVLVIDGQQKRFCCQSCVSEYKQVG,0.338 ± 0.14
14,IMNCCEQCGEYLPSKGAGKNVLVIDGQQKRFCCQSCVSEYKQVG,-0.287 ± 0.11
15,IMNCCEQCGEYLPSKGAGWNVLVIDGQQKRFCCQSCVSEYKQVG,-0.212 ± 0.11
16,IMNCCEQCGEYLPSKGAGRNVLVIDGQQKRFCCQSCVSEYKQVG,-0.249 ± 0.087
17,IMNCCEQCGEYLCSKGAGNNVLVIDGQQKRFCCQSCVSEYKQVG,0.105 ± 0.43
18,IMNCCEQCGEYLESKGAGNNVLVIDGQQKRFCCQSCVSEYKQVG,-0.171 ± 0.15
19,IMNCCEQCGEYLSSKGAGNNVLVIDGQQKRFCCQSCVSEYKQVG,-0.207 ± 0.12
20,IMNCCEQCGEYLTSKGAGNNVLVIDGQQKRFCCQSCVSEYKQVG,-0.094 ± 0.13
21,IMNCCEQCGEYLWSKGAGNNVLVIDGQQKRFCCQSCVSEYKQVG,-0.536 ± 0.13
22,IMNCCEQCGEYLVSKGAGNNVLVIDGQQKRFCCQSCVSEYKQVG,-0.669 ± 0.4
23,IMNCCEQCGEYLNSKGAGNNVLVIDGQQKRFCCQSCVSEYKQVG,-0.565 ± 0.23
24,IMNCCEQCGEYLLSKGAGNNVLVIDGQQKRFCCQSCVSEYKQVG,-0.438 ± 0.2

row,Variant,abundance fitness
1,IMNCCEQCGEYLGSKGAGNNVLVIDGQQKRFCCQSCVSEYKQVG,-0.278 ± 0.1
2,IMNCCEQCGEYLQSKGAGNNVLVIDGQQKRFCCQSCVSEYKQVG,-0.063 ± 0.11
3,IMNCCEQCGEYLRSKGAGNNVLVIDGQQKRFCCQSCVSEYKQVG,-0.515 ± 0.16
4,IMNCCEQCGEYLHSKGAGNNVLVIDGQQKRFCCQSCVSEYKQVG,-0.187 ± 0.17
5,IMNCCEQCGEYLKSKGAGNNVLVIDGQQKRFCCQSCVSEYKQVG,-0.678 ± 0.45
6,IMNCCEQCGEYLMSKGAGNNVLVIDGQQKRFCCQSCVSEYKQVG,-0.59 ± 0.14
7,IMNCCEQCGEYLPSKGADNNVLVIDGQQKRFCCQSCVSEYKQVG,0.59 ± 0.5
8,IMNCCEQCGEYLPSKGALNNVLVIDGQQKRFCCQSCVSEYKQVG,-0.432 ± 0.17
9,IMNCCEQCGEYLPSKGASNNVLVIDGQQKRFCCQSCVSEYKQVG,-0.347 ± 0.18
10,IMNCCEQCGEYLPSKGATNNVLVIDGQQKRFCCQSCVSEYKQVG,-0.377 ± 0.17
11,IMNCCEQCGEYLPSKGAWNNVLVIDGQQKRFCCQSCVSEYKQVG,-0.197 ± 0.092
12,IMNCCEQCGEYLPSKGAPNNVLVIDGQQKRFCCQSCVSEYKQVG,0.007 ± 0.19
13,IMNCCEQCGEYLPSKGAENNVLVIDGQQKRFCCQSCVSEYKQVG,0.302 ± 0.12
14,IMNCCEQCGEYLPSKGAMNNVLVIDGQQKRFCCQSCVSEYKQVG,-0.214 ± 0.13
15,IMNCCEQCGEYLPSKGAANNVLVIDGQQKRFCCQSCVSEYKQVG,0.015 ± 0.13
16,IMNCCEQCGEYLPSKGACNNVLVIDGQQKRFCCQSCVSEYKQVG,-0.247 ± 0.15
17,IMNCCEQCGEYLPSKGAGNNELVIDGQQKRFCCQSCVSEYKQVG,0.128 ± 0.092
18,IMNCCEQCGEYLPSKGAGNNKLVIDGQQKRFCCQSCVSEYKQVG,0.395 ± 0.35
19,IMNCCEQCGEYLPSKGAGNNALVIDGQQKRFCCQSCVSEYKQVG,-0.065 ± 0.098
20,IMNCCEQCGEYLPSKGAGNNCLVIDGQQKRFCCQSCVSEYKQVG,-0.302 ± 0.23
21,IMNCCEQCGEYLPSKGAGNNDLVIDGQQKRFCCQSCVSEYKQVG,-0.014 ± 0.13
22,IMNCCEQCGEYLPSKGAGNNLLVIDGQQKRFCCQSCVSEYKQVG,-0.162 ± 0.11
23,IMNCCEQCGEYLPSKGAGNNGLVIDGQQKRFCCQSCVSEYKQVG,-0.129 ± 0.088
24,IMNCCEQCGEYLPSLGAGNNVLVIDGQQKRFCCQSCVSEYKQVG,-0.094 ± 0.11

row,Variant,abundance fitness
1,IMNCCEQCGEYLPSPGAGNNVLVIDGQQKRFCCQSCVSEYKQVG,0.189 ± 0.096
2,IMNCCEQCGEYLPSAGAGNNVLVIDGQQKRFCCQSCVSEYKQVG,0.089 ± 0.077
3,IMNCCEQCGEYLPSMGAGNNVLVIDGQQKRFCCQSCVSEYKQVG,0.3 ± 0.19
4,IMNCCEQCGEYLPSDGAGNNVLVIDGQQKRFCCQSCVSEYKQVG,0.229 ± 0.18
5,IMNCCEQCGEYLPSHGAGNNVLVIDGQQKRFCCQSCVSEYKQVG,0.119 ± 0.15
6,IMNCCEQCGEYLPSSGAGNNVLVIDGQQKRFCCQSCVSEYKQVG,0.114 ± 0.13
7,IMNCCEQCGEYLPSGGAGNNVLVIDGQQKRFCCQSCVSEYKQVG,0.103 ± 0.075
8,IMNCCEQCGEYLPSCGAGNNVLVIDGQQKRFCCQSCVSEYKQVG,-0.012 ± 0.092
9,IMNCCEQCGEYLPSYGAGNNVLVIDGQQKRFCCQSCVSEYKQVG,0.07 ± 0.21
10,IMNCCEQCGEYLPSWGAGNNVLVIDGQQKRFCCQSCVSEYKQVG,-0.124 ± 0.093
11,IMNCCEQCGEYLPSVGAGNNVLVIDGQQKRFCCQSCVSEYKQVG,0.011 ± 0.1
12,IMNCCEQCGEYRPSKGAGNNVLVIDGQQKRFCCQSCVSEYKQVG,-0.498 ± 0.072
13,IMNCCEQCGEYSPSKGAGNNVLVIDGQQKRFCCQSCVSEYKQVG,-0.501 ± 0.13
14,IMNCCEQCGEYMPSKGAGNNVLVIDGQQKRFCCQSCVSEYKQVG,-0.46 ± 0.14
15,IMNCCEQCGEYPPSKGAGNNVLVIDGQQKRFCCQSCVSEYKQVG,-0.14 ± 0.11
16,IMNCCEQCGEYQPSKGAGNNVLVIDGQQKRFCCQSCVSEYKQVG,-0.294 ± 0.1
17,IMNCCEQCGEYTPSKGAGNNVLVIDGQQKRFCCQSCVSEYKQVG,-0.28 ± 0.097
18,IMNCCEQCGEYWPSKGAGNNVLVIDGQQKRFCCQSCVSEYKQVG,-0.467 ± 0.089
19,IMNCCEQCGEYYPSKGAGNNVLVIDGQQKRFCCQSCVSEYKQVG,-0.444 ± 0.12
20,IMNCCEQCGEYNPSKGAGNNVLVIDGQQKRFCCQSCVSEYKQVG,-0.482 ± 0.17
